In paper PMC3760834:

Molecular target: GST-Cx46G143R loop fusion protein (intracellular loop domain of human Cx46 with the cataract mutation G143R) (human)
Assay: pull-down; GST, GST-Cx46 loop or GST-Cx46G143R loop on glutathione beads incubated with crude membrane proteins of HeLa cells expressing Cx46, rotating platform, 4°C overnight; eluted proteins blotted with anti-Cx46 and anti-GST

fold of Cx46 pulled down against the wild-type GST-Cx46 loop: > 2 fold
Substance: human connexin 46 (Cx46), wild type (from UniProt Q9Y6H8 1-435) (natural protein)
